The target of the experiment is γ-secretase of HEK293 cell membrane preparations. As to the kind of experiment: cell-based or functional assay.

For “recombinant gSAP-16K (aa733-854 of the human gSAP), expressed and purified from BL21 DE3 E.coli (from UniProt A4D1B5 733-854)”, the Aβ production in an in vitro γ-secretase assay amounted to 2.4 fold.

These data come from patent publication US20130149309A1.
